What follows are substances tested against HLA-A*02:01 (Homo sapiens, UniProt P04439, D140Y/D185E/D98H/E176V/E277Q/G131W/G231S/I119V/I121R/I166T/I218V/L300P/L318F/N151K/N90K/P208A/P217A/Q86G/Q94H/R138H/R169H/T345S) (assay: MHC binding assay (UV-ligand exchange, β2m ELISA, peptide exchange yield)). Settings: binding to HLA-A*02:01.
From the text: Candidate peptides for T cell based therapies according to the present invention were further tested for their MHC binding capacity (affinity). The individual peptide-MHC complexes were produced by UV-ligand exchange, where a UV-sensitive peptide is cleaved upon UV-irradiation, and exchanged with the peptide of interest as analyzed. Only peptide candidates that can effectively bind and stabilize the peptide-receptive MHC molecules prevent dissociation of the MHC complexes. To determine the yield of the exchange reaction, an ELISA was performed based on the detection of the light chain (β2m) of stabilized MHC complexes. The assay was performed as generally described in Rodenko et al. (Rodenko et al., 2006).
96 well MAXISorp plates (NUNC) were coated over night with 2 ug/ml streptavidin in PBS at room temperature, washed 4× and blocked for 1 h at 37° C. in 2% BSA containing blocking buffer. Refolded HLA-A*02:01/MLA-001 monomers served as standards, covering the range of 15-500 ng/ml. Peptide-MHC monomers of the UV-exchange reaction were diluted 100 fold in blocking buffer. Samples were incubated for 1 h at 37° C., washed four times, incubated with 2 ug/ml HRP conjugated anti-β2m for 1 h at 37° C., washed again and detected with TMB solution that is stopped with […]. Absorption was measured at 450 nm. Candidate peptides that show a high exchange yield (preferably higher than 50%, most preferred higher than 75%) are generally preferred for a generation and production of antibodies or fragments thereof, and/or T cell receptors or fragments thereof, as they show sufficient avidity to the MHC molecules and prevent dissociation of the MHC complexes.
Table 11: MHC class I binding scores. Binding of HLA-class I restricted peptides to HLA-A*02:01 was ranged by peptide exchange yield: ≥10%=+; ≥20%=++; ≥50=+++; ≥75%=++++

| Peptide Exchange (MHC class I binding score, peptide exchange yield) | Substance |
| --- | --- |
| “++” (>20% = ++) | 165 (TLDDDLDTV; listed as Homo sapiens) [compound 165] |
| “+++” (>50 = +++) | 239 (ILAGEMLSV; listed as Homo sapiens) [compound 239] |
| “++++” (>75% = ++++) | 194 (YLDNVLAEL; listed as Homo sapiens) [compound 194] |
| “+++” (>50 = +++) | 365 (LISPLLLPV; listed as Homo sapiens) [compound 365] |
| “+++” (>50 = +++) | 160 (SLSFLVPSL; listed as Homo sapiens) [compound 160] |
| “+++” (>50 = +++) | 333 (VTLEFPQLIRV; listed as Homo sapiens) [compound 333] |
| “+++” (>50 = +++) | 259 (RLLDEQFAVL; listed as Homo sapiens) [compound 259] |
| “+++” (>50 = +++) | 325 (TLENGVPCV; listed as Homo sapiens) [compound 325] |
| “++++” (>75% = ++++) | 327 (VLIKWFPEV; listed as Homo sapiens) [compound 327] |
| “+++” (>50 = +++) | 339 (GLWGTVVNI; listed as Homo sapiens) [compound 339] |
| “+++” (>50 = +++) | 243 (ILPTLEKELFL; listed as Homo sapiens) [compound 243] |
| “+++” (>50 = +++) | 44 (FLLSINDFL; listed as Homo sapiens) [compound 44] |
| “+++” (>50 = +++) | 29 (AVLQAVTAV; listed as Homo sapiens) [compound 29] |
| “+++” (>50 = +++) | 305 (LLFPQIEGIKI; listed as Homo sapiens) [compound 305] |
| “+++” (>50 = +++) | 347 (YLGPVSPSL; listed as Homo sapiens) [compound 347] |
| “++” (>20% = ++) | 266 (TLLDQLDTQL; listed as Homo sapiens) [compound 266] |
| “+” (>10% = +) | 131 (LQALEVLKI; listed as Homo sapiens) [compound 131] |
| “+++” (>50 = +++) | 244 (ILQALAVHL; listed as Homo sapiens) [compound 244] |
| “++” (>20% = ++) | 95 (ILGYMAHEHKV; listed as Homo sapiens) [compound 95] |
| “+++” (>50 = +++) | 198 (YLTFLPAEV; listed as Homo sapiens) [compound 198] |

| Peptide Exchange (MHC class I binding score, peptide exchange yield) | Substance |
| --- | --- |
| “++” (>20% = ++) | 277 (VMILKLPFL; listed as Homo sapiens) [compound 277] |
| “++++” (>75% = ++++) | 336 (YMAVTTQEV; listed as Homo sapiens) [compound 336] |
| “+++” (>50 = +++) | 172 (TLYDMLASI; listed as Homo sapiens) [compound 172] |
| “++++” (>75% = ++++) | 121 (RLYEITIEV; listed as Homo sapiens) [compound 121] |
| “+++” (>50 = +++) | 230 (FLQDSKVIFV; listed as Homo sapiens) [compound 230] |
| “+++” (>50 = +++) | 50 (FLFEPVVKAFL; listed as Homo sapiens) [compound 50] |
| “+++” (>50 = +++) | 82 (GLQSGVDIGV; listed as Homo sapiens) [compound 82] |
| “+++” (>50 = +++) | 217 (ALDEPPYLTV; listed as Homo sapiens) [compound 217] |
| “+++” (>50 = +++) | 161 (SMDDGMINV; listed as Homo sapiens) [compound 161] |
| “+++” (>50 = +++) | 22 (ALWDPVIEL; listed as Homo sapiens) [compound 22] |
| “+++” (>50 = +++) | 18 (LLGEFSIKM; listed as Homo sapiens) [compound 18] |
| “+++” (>50 = +++) | 253 (NLWSVDGEVTV; listed as Homo sapiens) [compound 253] |
| “++” (>20% = ++) | 105 (KLMNDIADI; listed as Homo sapiens) [compound 105] |
| “+++” (>50 = +++) | 261 (SLVEAQGWLV; listed as Homo sapiens) [compound 261] |
| “+++” (>50 = +++) | 346 (VLVQVSPSL; listed as Homo sapiens) [compound 346] |
| “+++” (>50 = +++) | 9 (ALCDTLITV; listed as Homo sapiens) [compound 9] |
| “+++” (>50 = +++) | 193 (YLDLSNNRL; listed as Homo sapiens) [compound 193] |
| “+++” (>50 = +++) | 345 (YLIEPDVELQRI; listed as Homo sapiens) [compound 345] |
| “+++” (>50 = +++) | 126 (LLPEGGITAI; listed as Homo sapiens) [compound 126] |
| “+++” (>50 = +++) | 242 (ILLGIQELL; listed as Homo sapiens) [compound 242] |

| Peptide Exchange (MHC class I binding score, peptide exchange yield) | Substance |
| --- | --- |
| “++” (>20% = ++) | 296 (FIAPTGHSL; listed as Homo sapiens) [compound 296] |
| “++” (>20% = ++) | 353 (ATPMPTPSV; listed as Homo sapiens) [compound 353] |
| “+++” (>50 = +++) | 298 (IILPVEVEV; listed as Homo sapiens) [compound 298] |
| “+++” (>50 = +++) | 357 (FLIQEIKTL; listed as Homo sapiens) [compound 357] |
| “++++” (>75% = ++++) | 134 (MLLEHGITLV; listed as Homo sapiens) [compound 134] |
| “++” (>20% = ++) | 3 (VIAELPPKV; listed as Homo sapiens) [compound 3] |
| “+++” (>50 = +++) | 128 (LLSEEEYHL; listed as Homo sapiens) [compound 128] |
| “+++” (>50 = +++) | 351 (ALSEKLARL; listed as Homo sapiens) [compound 351] |
| “+++” (>50 = +++) | 226 (AMNISVPQV; listed as Homo sapiens) [compound 226] |
| “+++” (>50 = +++) | 363 (ITTEVVNELYV; listed as Homo sapiens) [compound 363] |
| “+++” (>50 = +++) | 164 (SVHKGFAFV; listed as Homo sapiens) [compound 164] |
| “+++” (>50 = +++) | 273 (VLGEYSYLL; listed as Homo sapiens) [compound 273] |
| “++” (>20% = ++) | 80 (VLIEDELEEL; listed as Homo sapiens) [compound 80] |
| “+++” (>50 = +++) | 110 (LLFDHLEPMEL; listed as Homo sapiens) [compound 110] |
| “+++” (>50 = +++) | 352 (ALVFELHYV; listed as Homo sapiens) [compound 352] |
| “++” (>20% = ++) | 84 (GVMDVNTAL; listed as Homo sapiens) [compound 84] |
| “+++” (>50 = +++) | 72 (GLLDAGKMYV; listed as Homo sapiens) [compound 72] |
| “+++” (>50 = +++) | 316 (MLLEHGITL; listed as Homo sapiens) [compound 316] |
| “+++” (>50 = +++) | 258 (RLDYITAEI; listed as Homo sapiens) [compound 258] |
| “+++” (>50 = +++) | 362 (ILTELGGFEV; listed as Homo sapiens) [compound 362] |
